For this data set, the target named is NSP12 (RNA-dependent RNA polymerase) (SARS-CoV-2, UniProt P0DTD1 4393-5324). Briefly: filter binding; 20 mM Tris, 200 mM KCl, room temperature, 1 h; pH not stated; […]. The settings on record: protein: commercial; tags: His; label: 3' biotin; stem loops.

For one molecule, Kd results are on record in PMC8936114.

B1: Scov2_7431_7555_RNA (structured_RNA)
RNA: GGGCGAAAACGCCCCAUUUUAUUAUGUAUGGAAAAGUUAUGUGCAUGUUGUAGACGGUUGUAAUUCAUCAACUUGUAUGAUGUGUUACAAACGUAAUAGAGCAACAAGAGUCGAAUGUACAACUAUUGUUAAUGGUGUU
modifications: 3' biotinylation (Pierce RNA 3' End Biotinylation Kit)
Molecule B1 came in with a Kd of 17 nM.
